# Data taken from the DeepSol protein solubility set.
# Assay: soluble on expression in E. coli; label from the status in PepcDB or PDB records
row,Sequence,soluble on expression in E. coli
1,MKIRSLIRVRLTRFFPSDRYIKNRCSGADGVLIDFEKKEDKVDDYKLSSFHRLKNSKFSLPKLLVDPVTTNSNQWIPRLIEEKSVDGVAMRNFTDDVISLDNEIFTMIWDTREQRITHSIISYHRINDCDIMWNSSIRTAVQDSLEHDIQPLAARTLRFRDYETAVQEFEILRQIGFTGAVIRNPNLIEMTNEIFEK,not soluble
2,MKISIRHRYIAKIPALEVTTEEQKNEALPLIVYYHGWQSAKELSLTQARKLAHEGFRVILPDAMNHGERKTEPISTIPSITFWSSIQYNLIEFPVIIHHFHKLGLIKENWIGVGGVSMGGITTSALMTQHPEIQAAACLMGTPYPARYIQRVIQRAKEFAIFVPKDLPLLLSWVHQYDLSQTPERLQERPMLFWHGTEDEKIPYEDMADFEQLVSGKTYARNTQFITEIGERHLVKGETMDLVVDFFKEASKTLEK,not soluble
3,MKITGVKAVFYSATGNTEEVVTAIAEKIAEKLGVSMEICNFTLPGGRTEVQTYAPSELVVFGTPVYAGRVPNKMLPVVQNNFKGEGALAVPVVTFGNRNFDNGLIELRNELENNGFHTIAGAGFAVSHVFSDKIAPGRPDEADREIMMRFAEAVAEKVEKMEEIPAPIEVRGEDPVGPYYTPLGTDGKPAVFLKAKPK,not soluble
4,MKIVIAPDSFKESLSAEKCCQAIKAGFSTLFPDANYICLPIADGGEGTVDAMVAATGGNIVTLEVCGPMGEKVNAFYGLTGDGKTAVIEMAAASGLMLVAPEKRNPLLASSFGTGELIRHALDNDIRHIILGIGGSATVDGGMGMAQALGVRFLDADGQALAANGGNLARVASIEMDECDPRLANCHIEVACDVDNPLVGARGAAAVFGPQKGATPEMVEELEQGLQNYARVLQQQTEINVCQMAGGGAAGGMGIAAAVFLNADIKPGIEIVLNAVNLAQAVQGAALVITGEGRIDSQTAGGKAPLGVASVAKQFNVPVIGIAGVLGDGVEVVHQYGIDAVFSILPRLAPLAEVLASGETNLFNSARNIACAIKIGQGIKN,soluble
5,MKIVLISGLSGSGKSVALRQMEDSGYFCVDNLPLEMLPALVSYHIERADETELAVSVDVRSGIDIGQAREQIASLRRLGHRVEVLFVEAEESVLVRRFSETRRGHPLSNQDMTLLESLKKEREWLFPLKEIAYCIDTSKMNAQQLRHAVRQWLKVERTGLLVILESFGFKYGVPNNADFMFDMRSLPNPYYDPELRPYTGMDKPVWDYLDGQPLVQEMVDDIERFVTHWLPRLEDESRSYVTVAIGCTGGQHRSVYIVEKLARRLKGRYELLIRHRQAQNLSDR,not soluble
6,MKIYVSRSRLKSNRRRLINETDVERLFSRNGFQIIHPQELTIKEQINLFRHAQVIAGPLGSAMYNCVFQTKPTKKLLLTYEKFIKMSDLLINTSTNGLLYYFAGTEHKQNKSPSNTEWLEHHHHHH,soluble
7,MKKAIQFGAGNIGRGFIGGLLVKSGYHVVFADVNEYILNSINKDKKYTIHIRDVECIDEVIDNISAVSSIKEEIIDEIVQAEIITTAVGPLVLTKIASTIAKGIKARKEKGLTSNLNIIACENAIYASSSLKEEVLKYLNKEEVEYLEMYVGFPNCSVDRIVPPGKNENPLDVTVENFYEWNVEKQGFKGEIPTIVGMNLADNLMAYIERKLFTLNTGHAITAYIGYLKGYKTIEESIKDKFICDIVKSAMVESGEGLIKKYNFDSEVHYKYIDKILNRFKNPYLNDDVLRVGREPLRKLSDKDRLIKPLMTAKSYGLSVDNLILGIGAALHYNNSEDTQSVELQELIKSIGVKKAVAKIANISNDEELLNNIEKSYIFMKNL,not soluble
8,MKKALTTRHPPIDVYCICREVTEVMEKLHAADAETIPLASNIQMVNMVNNYVIMSYGLLHDDYEYGAITESCRKDVLLLLRELFPRKIYLWEN,soluble
9,MKKDLISVVMSAYNSEKFISDSISSILDQTYENWELIIINDASSDNTLKIVNQFSEKDPRIKVIDNENNLGLTISLNIGINNSKGEFIARLDSDDFAEPSRLEKELDHLHAYPEAGLVGSGAHLINSSGNKIGSMNVMSQPYFVNRFLINLNPFIHSSIMVRKKALDNVGSYREKFRYSQDYDLILRLSDKYKLSNIALPLIRWRVSDSSVTMQHHTLQRIYADIAREFAIERRNSGHDSYESTEFDTLIHEMRIRNQGRYLCDHGVYDLLFNKKYKEGCSELIKGISKGGFPYNSFYRGITQVISKVNIQLEHHHHHH,not soluble
10,MKKDLSALKEARFNAILDSATILLVENPTASMNEIAEYAGIGIATLHRYVESREKLMLFLGHRAIQLVSDTVNQIPLDEERSENYIPELIEALIPLGDKIYFLGHDASVFNNKELGEAEEKLREPLRRVIELLQQRGYFQQTVSSEWILNTLYALLFHTWEQVHEGNVAKKSAAELVLNTFYYGFKAKDELRGK,not soluble
11,MKKEIKFSLVYRDMWQSSGKYQPRADQLVRIAPLIIEMGCFSRVETNGGAFEQVNLLYGENPNKAVRAFTKPFHEASIQTHMLDRGLNGLRMYPVPADVRRLMYKVKHAQGVDITRIFCGLNEVRNIIPSIHYALEAGMIPQATLCITFSPVHTVEYYTAIAERLIEAGAPEICLKDMAGVGRPEMLGRLTKAIKERHPEIIIQYHGHSGPGLSMASILEVCENGADIIDVAMEPISWGKVHPDVISVQAMLKDAGFQVPEINMKAYMKARAMTQEFIDDFLGYFMDPTNKHMSSLLLKCGLPGGMMGSMMADLKGVHSGINLILRGKNEPELSIDDLLVMLFDEVEYVWPKLGYPPLVTPFSQYVKNVALMNVMSLIKGEERWTMIDNHTWDMILGKSGRLPGALAPEIIALAKEKGYEFTDEDPQKNYPDQLDEYRKEMTENGWDFGQDDEELFELAMHDRQYRDYKSGIAKKRFEDDLQRAKDAALAKQGFSEEEVKRMKRAKAEPVTAMEKGQIIWEIDVESPSMPPEVGHKYDPDDVFCYIATPWHTYDKVLANFSGRVIEVCAKQGALVDKGEPLAYIERCEEPA,not soluble
12,MKKEPKGAKNRIVIAKDEKNVLTCTSEGFEYTPDIVKNVYGKSSRPALEDWFLTELDFFRRYYPGYEVFTLGSSCVFGEKFVNYLTICEFDIDSTYAFDCLKKALRESDQAIRRKLSAMWKWDIAARKDWSIVFMVGHMDFAYFLQHRKEFQEDAHKRFMSTFTTAETKITSRDYKVMHDGAILPFDETALSPEDRFIFENYQKIKFETTPL,soluble
13,MKKERKPKIVIMGGGTGLSVLLRGLKQYPVDITAVVTIADDGGSSGRLRDELEIPPPGDIRNVLVALSDVEPLVEALFQHRFTTGDGLKGHALGNLLLAGMTSITGDFFHAITETSKVLNVRGRVLPAANQSAVLHAELEDGEIVTGESKIPYYGKKINRVFLTPEDVEPLHETLAEIKRADLLVFGPGSLYTSILPNLVVNKIGDAVLAAKAKKVYVCNVMTQAGETMGYTAFDHVQALHDHLGQPFINTAIVNNREIPCELRKSYEEEMSTPVVVDEERFVENNIDVIQEGLAKYDDHVVRHDTLKLASILYSLLMAGDPLEHHHHHH,soluble
14,MKKGILIILLVLMVLSCGTSKKVTLPDKDIKIENETVFFKNEKYTGKINLKDKNSVSGFITFKDGHLDGPTELKNDKKQMYTKFNIVNNQFEGETVVKNADQGINMTVNYNNGKIVKLLGDYSKTVKYDITFVDGLANGWFESEGEKFVFSDGVLTLEEDGITTEVKYYVNQETGDMGMEFFINGKSAGRDEKPNKVFGMEYFRIIAISSILEENSKGKDK,not soluble
15,MKKGTPLPHSDELDAGNVLAVENLNIAFMQDQQKIAAVRNLSFSLQRGETLAIVGESGSGKSVTALALMRLLEQAGGLVQCDKMLLQRRSREVIELSEQNAAQMRHVRGADMAMIFQEPMTSLNPVFTVGEQIAESIRLHQNASREEAMVEAKRMLDQVRIPEAQTILSRYPHQLSGGMRQRVMIAMALSCRPAVLIADEPTTALDVTIQAQILQLIKVLQKEMSMGVIFITHDMGVVAEIADRVLVMYQGEAVETGTVEQIFHAPQHPYTRALLAAVPQLGAMKGLDYPRRFPLISLEHPAKQAPPIEQKTVVDGEPVLRVRNLVTRFPLRSGLLNRVTREVHAVEKVSFDLWPGETLSLVGESGSGKSTTGRALLRLVESQGGEIIFNGQRIDTLSPGKLQALRRDIQFIFQDPYASLDPRQTIGDSIIEPLRVHGLLPGKDAAARVAWLLERVGLLPEHAWRYPHEFSGGQRQRICIARALALNPKVIIADEAVSALDVSIRGQIINLLLDLQRDFGIAYLFISHDMAVVERISHRVAVMYLGQIVEIGPRRAVFENPQHPYTRKLLAAVPVAEPSRQRPQRVLLSDDLPSNIHLRGEEVAAVSLQCVGPGHYVAQPQSEYAFMRR,not soluble
16,MKKHGVLNSEIAAVLASLGHTDTVVIADCGLPIPDGVKRIDLAVEIGKPSFLEVLQVVADDMAIEKVTLAEEVIINNAEVNKEIERKLIEPAFEYVSHEQFKEHTKKAKAIIRTGEATPYANVILHAGVIF,not soluble
17,MKKIAIFAGDGIGPEIVAAARQVLDAVDQAAHLGLRCTEGLVGGAALDASDDPLPAASLQLAMAADAVILGAVGGPRWDAYPPAKRPEQGLLRLRKGLDLYANLRPAQIFPQLLDASPLRPELVRDVDILVVRELTGDIYFGQPRGLEVIDGKRRGFNTMVYDEDEIRRIAHVAFRAAQGRRKQLCSVDKANVLETTRLWREVVTEVARDYPDVRLSHMYVDNAAMQLIRAPAQFDVLLTGNMFGDILSDEASQLTGSIGMLPSASLGEGRAMYEPIHGSAPDIAGQDKANPLATILSVAMMLRHSLNAEPWAQRVEAAVQRVLDQGLRTADIAAPGTPVIGTKAMGAAVVNALNLKD,soluble
18,MKKIIETQRAPGAIGPYVQGVDLGSMVFTSGQIPVCPQTGEIPADVQDQARLSLENVKAIVVAAGLSVGDIIKMTVFITDLNDFATINEVYKQFFDEHQATYPTRSCVQVARLPKDVKLEIEAIAVRSA,soluble
19,MKKILLVFLVGTMAFAAYGAEGDVQVSKSVEDSITKDYDQDGVYSSYEKALRRAQESVYVTLPEKRGYWYTMLDRIKAEEEELMPDEQARMRRKR,not soluble
20,MKKITLLSGILFLIGYSDAEVFESQNVRVKRNDFTNNYGYGPFGIGPTNGGFDSYGFYRDKFYNSGLPPLYSFASYRNYYHEISFHKNKYGQPAPTDFETLQQERYGPYYDGVWGYADHSKNWFGKR,not soluble
21,MKKKSVWIKADEGGWEEQKERITTGLESGADCVLVNPGDVEKVRELGNITVAAFARDNKSGADIVVVGKRGEGDGTKPLPQEIPGSFDVNAATLLTDKGVTVGGYVVIKDRSYERFAAEMGKICDYLLVTGTDWKVIPLENLIADLQREKVKIIFGVKSAEEARLAFQTLETGADGVLLDSGNPQEIKDTIKAARELESESTELESAVVTRVEPLGMGDRVCVDTCNLMQRGEGMLIGSQASGMFLVNSESDDSPYVAARPFRVNAGAVHSYIKIGDKTRYLSELQAGDSVTIIDSRGKQREGIVGRIKIESRPLMLIEAKAGDRTLTAILQNAETIKLVGKGGTPISVAKLKKGDEVLVRLEEGARHFGKKIEETIIEKLEHHHHHH,soluble
22,MKKLINKKETFLTDMLEGLLIAHPELDLIANTVIVKKAKKEHGVAIVSGGGSGHEPAHAGFVAEGMLDAAVCGEVFTSPTPDKILEAIKAVDTGDGVLLVVKNYAGDVMNFEMAQELAEMEGINVQTVIVRDDIAVTNEVQRRGVAGTVFVHKLAGYLAEKGYSLTEIKSRVEALLPEIKSIGMAIEPPLVPTTGKYGFDIEDDKMEIGIGIHGEKGIHREEVKDIDHIVGTLLDELYKEVTANDVILMVNGMGGTPLSELNIVTKYIQQNLAARTVNVAKWFVGDYMTSLDMQGFSITIVPNKPEYLEAFLAPTTSQYFKLEHHHHHH,soluble
23,MKKLLFAIDDTEACERAAQYILDMFGKDADCTLTLIHVKPEFMLYGEAVLAAYDEIEMKEEEKAKLLTQKFSTFFTEKGINPFVVIKEGEPVEMVLEEAKDYNLLIIGSSENSFLNKIFASHQDDFIQKAPIPVLIVK,soluble
